# Reference: patent US20260242735A1 (UNIVERSIT T BASEL, published 2026)
# B1: Refmab #1 (antibody, human IgG1, V domains shown)
# VH: EVQLVQSGAEVKKPGSSVKVSCKASGYTITDSNIHWVRQAPGQSLEWIGYIYPYNGGTDYNQKFKNRATLTVDNPTNTAYMELSSLRSEDTAFYYCVNGNPWLAYWGQGTLVTVSS
# VL: DIQLTQSPSTLSASVGDRVTITCRASESLDNYGIRFLTWFQQKPGKAPKLLMYAASNQGSGVPSRFSGSGSGTEFTLTISSLQPDDFATYYCQQTKEVPWSFGQGTKVEVK
# notes: Tested in IgG format; human IgG1 (Absolute Antibody hP67.6, Cat. No. Ab00283-10.0); also called hP67.6
# Assays:
# Assay in all cases: flow cytometry, IgG on cells expressing the mutant
# human CD33 variant D51Y = human CD33 variant D51Y (human, UniProt P20138 18-364)
# Experimental: (§1) An alanine scan on human CD33 was performed to the determine the residues on CD33 that are involved in binding to the antibodies investigated. […] Briefly, a mutation library of CD33 was created by high-throughput, site-directed mutagenesis. Each residue was individually mutated to alanine, with alanine codons mutated to serine. The mutant library was arrayed in 384-well microplates and transiently transfected into HEK293-T. Following transfection, cells were incubated with the indicated antibodies (IgG or Fab) at concentrations pre-determined using an independent immunofluorescence titration curve on wild type CD33. […] Binding of each antibody to each mutant clone was determined in duplicates. For each point, background fluorescence was subtracted from the raw data, which were then normalized to antibody reactivity with wild type CD33.
# (§2) Antibodies were screened for binding to the human CD33 variants in IgG format. […] For each mutation, background fluorescence was subtracted from the raw data, which were then normalized to antibody reactivity with wild-type CD33.
# human CD33 variant Y50D = human CD33 variant Y50D (human, UniProt P20138 18-364)
# Experimental: as §1, §2
# human CD33 variant Y50V = human CD33 variant Y50V (human, UniProt P20138 18-364)
# Experimental: as §1, §2
# human CD33 variant K52Y = human CD33 variant K52Y (human, UniProt P20138 18-364)
# Experimental: as §1, §2
# human CD33 variant Y127H = human CD33 variant Y127H (human, UniProt P20138 18-364)
# Experimental: as §1, §2
# human CD33 variant P48G = human CD33 variant P48G (human, UniProt P20138 18-364)
# Experimental: as §1, §2
# human CD33 variant R122S = human CD33 variant R122S (human, UniProt P20138 18-364)
# Experimental: as §1, §2
# human CD33 variant K52H = human CD33 variant K52H (human, UniProt P20138 18-364)
# Experimental: as §1, §2
# human CD33 variant Y49Q = human CD33 variant Y49Q (human, UniProt P20138 18-364)
# Experimental: as §1, §2
# human CD33 variant P48F = human CD33 variant P48F (human, UniProt P20138 18-364)
# Experimental: as §1, §2
# human CD33 variant Y49S = human CD33 variant Y49S (human, UniProt P20138 18-364)
# Experimental: as §1, §2
# human CD33 variant K52L = human CD33 variant K52L (human, UniProt P20138 18-364)
# Experimental: as §1, §2
# human CD33 variant Y50L = human CD33 variant Y50L (human, UniProt P20138 18-364)
# Experimental: as §1, §2
# human CD33 variant P48I = human CD33 variant P48I (human, UniProt P20138 18-364)
# Experimental: as §1, §2
# human CD33 variant K52I = human CD33 variant K52I (human, UniProt P20138 18-364)
# Experimental: as §1, §2
# human CD33 variant K52E = human CD33 variant K52E (human, UniProt P20138 18-364)
# Experimental: as §1, §2
# human CD33 variant Y50P = human CD33 variant Y50P (human, UniProt P20138 18-364)
# Experimental: as §1, §2
# human CD33 variant R122G = human CD33 variant R122G (human, UniProt P20138 18-364)
# Experimental: as §1, §2
# human CD33 variant R122E = human CD33 variant R122E (human, UniProt P20138 18-364)
# Experimental: as §1, §2
# human CD33 variant P48D = human CD33 variant P48D (human, UniProt P20138 18-364)
# Experimental: as §1, §2
# human CD33 variant Y129S = human CD33 variant Y129S (human, UniProt P20138 18-364)
# Experimental: as §1, §2
# human CD33 variant Y49P = human CD33 variant Y49P (human, UniProt P20138 18-364)
# Experimental: as §1, §2
# human CD33 variant Y127E = human CD33 variant Y127E (human, UniProt P20138 18-364)
# Experimental: as §1, §2
# human CD33 variant M120I = human CD33 variant M120I (human, UniProt P20138 18-364)
# Experimental: as §1, §2
# human CD33 variant P48K = human CD33 variant P48K (human, UniProt P20138 18-364)
# Experimental: as §1, §2
# human CD33 variant Y49R = human CD33 variant Y49R (human, UniProt P20138 18-364)
# Experimental: as §1, §2
# human CD33 variant M120L = human CD33 variant M120L (human, UniProt P20138 18-364)
# Experimental: as §1, §2
# human CD33 variant P48M = human CD33 variant P48M (human, UniProt P20138 18-364)
# Experimental: as §1, §2
# human CD33 variant P48H = human CD33 variant P48H (human, UniProt P20138 18-364)
# Experimental: as §1, §2
# human CD33 variant Y49L = human CD33 variant Y49L (human, UniProt P20138 18-364)
# Experimental: as §1, §2
# human CD33 variant Y50H = human CD33 variant Y50H (human, UniProt P20138 18-364)
# Experimental: as §1, §2
# human CD33 variant Y50I = human CD33 variant Y50I (human, UniProt P20138 18-364)
# Experimental: as §1, §2
# human CD33 variant Y50S = human CD33 variant Y50S (human, UniProt P20138 18-364)
# Experimental: as §1, §2
# human CD33 variant P48T = human CD33 variant P48T (human, UniProt P20138 18-364)
# Experimental: as §1, §2
# human CD33 variant Y49G = human CD33 variant Y49G (human, UniProt P20138 18-364)
# Experimental: as §1, §2
# human CD33 variant P48S = human CD33 variant P48S (human, UniProt P20138 18-364)
# Chain of human CD33 variant P48S (P20138 18-364 P48S limits assumed): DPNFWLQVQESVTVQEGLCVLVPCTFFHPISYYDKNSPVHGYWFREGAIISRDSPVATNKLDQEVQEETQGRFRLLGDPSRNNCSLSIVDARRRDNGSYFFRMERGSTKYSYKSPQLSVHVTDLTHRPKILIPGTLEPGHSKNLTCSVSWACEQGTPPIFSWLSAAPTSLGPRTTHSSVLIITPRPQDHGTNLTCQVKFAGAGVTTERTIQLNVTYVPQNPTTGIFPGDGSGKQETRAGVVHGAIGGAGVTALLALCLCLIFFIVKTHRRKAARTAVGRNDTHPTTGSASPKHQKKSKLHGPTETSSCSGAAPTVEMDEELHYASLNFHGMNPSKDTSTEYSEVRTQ
# Experimental: as §1, §2
# Chain of human CD33 variant Y49L (P20138 18-364 Y49L limits assumed): as the sequence (P20138 18-364 P48S limits assumed) above, with S31P, Y32L counted along it
# Chain of human CD33 variant Y50I (P20138 18-364 Y50I limits assumed): as the sequence (P20138 18-364 P48S limits assumed) above, with S31P, Y33I counted along it
# Chain of human CD33 variant P48D (P20138 18-364 P48D limits assumed): as the sequence (P20138 18-364 P48S limits assumed) above, with S31D counted along it
# Chain of human CD33 variant P48M (P20138 18-364 P48M limits assumed): as the sequence (P20138 18-364 P48S limits assumed) above, with S31M counted along it
# Chain of human CD33 variant D51Y (P20138 18-364 D51Y limits assumed): as the sequence (P20138 18-364 P48S limits assumed) above, with S31P, D34Y counted along it
# Chain of human CD33 variant K52L (P20138 18-364 K52L limits assumed): as the sequence (P20138 18-364 P48S limits assumed) above, with S31P, K35L counted along it
# Chain of human CD33 variant P48K (P20138 18-364 P48K limits assumed): as the sequence (P20138 18-364 P48S limits assumed) above, with S31K counted along it
# Chain of human CD33 variant Y49S (P20138 18-364 Y49S limits assumed): as the sequence (P20138 18-364 P48S limits assumed) above, with S31P, Y32S counted along it
# Chain of human CD33 variant Y49P (P20138 18-364 Y49P limits assumed): as the sequence (P20138 18-364 P48S limits assumed) above, with S31P, Y32P counted along it
# Chain of human CD33 variant P48G (P20138 18-364 P48G limits assumed): as the sequence (P20138 18-364 P48S limits assumed) above, with S31G counted along it
# Chain of human CD33 variant Y127H (P20138 18-364 Y127H limits assumed): as the sequence (P20138 18-364 P48S limits assumed) above, with S31P, Y110H counted along it
# Chain of human CD33 variant Y49Q (P20138 18-364 Y49Q limits assumed): as the sequence (P20138 18-364 P48S limits assumed) above, with S31P, Y32Q counted along it
# Chain of human CD33 variant R122G (P20138 18-364 R122G limits assumed): as the sequence (P20138 18-364 P48S limits assumed) above, with S31P, R105G counted along it
binder,measurement,setting,value
B1,Mean % WT Binding,human CD33 variant D51Y,94.4 % of WT
same,Mean % WT Binding,human CD33 variant Y50D,115 % of WT
same,Mean % WT Binding,human CD33 variant Y50V,94.9 % of WT
same,Mean % WT Binding,human CD33 variant K52Y,45 % of WT
same,Mean % WT Binding,human CD33 variant Y127H,97.1 % of WT
same,Mean % WT Binding,human CD33 variant P48G,95 % of WT
same,Mean % WT Binding,human CD33 variant R122S,111 % of WT
same,Mean % WT Binding,human CD33 variant K52H,94.2 % of WT
same,Mean % WT Binding,human CD33 variant Y49Q,105 % of WT
same,Mean % WT Binding,human CD33 variant P48F,94.6 % of WT
same,Mean % WT Binding,human CD33 variant Y49S,107 % of WT
same,Mean % WT Binding,human CD33 variant K52L,97.6 % of WT
same,Mean % WT Binding,human CD33 variant Y50L,109 % of WT
same,Mean % WT Binding,human CD33 variant P48I,107 % of WT
same,Mean % WT Binding,human CD33 variant K52I,89.2 % of WT
same,Mean % WT Binding,human CD33 variant K52E,98.6 % of WT
same,Mean % WT Binding,human CD33 variant Y50P,98.1 % of WT
same,Mean % WT Binding,human CD33 variant R122G,109 % of WT
same,Mean % WT Binding,human CD33 variant R122E,110 % of WT
same,Mean % WT Binding,human CD33 variant P48D,109 % of WT
same,Mean % WT Binding,human CD33 variant Y129S,68.7 % of WT
same,Mean % WT Binding,human CD33 variant Y49P,92.5 % of WT
same,Mean % WT Binding,human CD33 variant Y127E,79.2 % of WT
same,Mean % WT Binding,human CD33 variant M120I,96.6 % of WT
same,Mean % WT Binding,human CD33 variant P48K,99.4 % of WT
same,Mean % WT Binding,human CD33 variant Y49R,87.1 % of WT
same,Mean % WT Binding,human CD33 variant M120L,98.4 % of WT
same,Mean % WT Binding,human CD33 variant P48M,110 % of WT
same,Mean % WT Binding,human CD33 variant P48H,97.4 % of WT
same,Mean % WT Binding,human CD33 variant Y49L,100 % of WT
same,Mean % WT Binding,human CD33 variant Y50H,103 % of WT
same,Mean % WT Binding,human CD33 variant Y50I,99.2 % of WT
same,Mean % WT Binding,human CD33 variant Y50S,101 % of WT
same,Mean % WT Binding,human CD33 variant P48T,106 % of WT
same,Mean % WT Binding,human CD33 variant Y49G,107 % of WT
same,Mean % WT Binding,human CD33 variant P48S,97.5 % of WT
